Experimental data from article PMC11919277.
Each block holds one substance with its values, some of them ahead of it.

Assays:
Experiment in all cases: co-immunoprecipitation (anti-HA agarose beads), western blot, ImageJ densitometry
Conditions in all cases: three independent experiments; parent: est. 0.97; read off a plot
[1] = target: WT-Clocka, FLAG-tagged (zebrafish Clocka, wild type)
[2] = target: WT-Bmal1a, HA-tagged (zebrafish Bmal1a, wild type)
[3] = target: Bmal1a-mut, HA-tagged (zebrafish Bmal1a with the four cetacean-specific BMAL1 mutations)

ratio to parent [1]: 1.2
Substance: WT-Bmal1a, HA-tagged (zebrafish Bmal1a, wild type) D3E; L456P; H461R; M466T

ratio to parent [2]: 1.6
Substance: WT-Clocka, FLAG-tagged (zebrafish Clocka, wild type) M724V; S752P; T779A

ratio to parent [3]: 1.6
Substance: m1; m3 Clocka: M724V; S752P; T779A; Bmal1a: D3E; L456P; H461R; M466T
